{
  "source": "paper PMC3808318",
  "about": "“A type III ACC synthase, ACS7, is involved in root gravitropism in Arabidopsis thaliana” (Journal of Experimental Botany, 2013)",
  "molecules": {"B1": {"name": "G-14-3-3ω recombinant protein (GST-tagged 14-3-3ω) (natural protein, Arabidopsis, UniProt Q01525 1-259, looked up)", "chain": "MASGREEFVYMAKLAEQAERYEEMVEFMEKVSAAVDGDELTVEERNLLSVAYKNVIGARRASWRIISSIEQKEESRGNDDHVTAIREYRSKIETELSGICDGILKLLDSRLIPAAASGDSKVFYLKMKGDYHRYLAEFKTGQERKDAAEHTLAAYKSAQDIANAELAPTHPIRLGLALNFSVFYYEILNSPDRACNLAKQAFDEAIAELDTLGEESYKDSTLIMQLLRDNLTLWTSDMQDDAADEIKEAAAPKPTEEQQ", "notes": "14-3-3ω (14-3-3 omega), Arabidopsis; The printed name puts G (GST) before 14-3-3ω; also called 14-3-3ω protein; source: E. coli, purified (GST beads, glutathione elution)"}},
  "key": {"[1]": {"biological_target": "T1, AtCDPK16 (G-AtCDPK16-6His) (Arabidopsis thaliana, UniProt Q7XJR9)", "T1 construct": "gene CPK16; recombinant from E. coli, N-terminal G (GST) and C-terminal 6His tags, about 100 kDa with tags", "T1 sequence (Q7XJR9 1-571)": "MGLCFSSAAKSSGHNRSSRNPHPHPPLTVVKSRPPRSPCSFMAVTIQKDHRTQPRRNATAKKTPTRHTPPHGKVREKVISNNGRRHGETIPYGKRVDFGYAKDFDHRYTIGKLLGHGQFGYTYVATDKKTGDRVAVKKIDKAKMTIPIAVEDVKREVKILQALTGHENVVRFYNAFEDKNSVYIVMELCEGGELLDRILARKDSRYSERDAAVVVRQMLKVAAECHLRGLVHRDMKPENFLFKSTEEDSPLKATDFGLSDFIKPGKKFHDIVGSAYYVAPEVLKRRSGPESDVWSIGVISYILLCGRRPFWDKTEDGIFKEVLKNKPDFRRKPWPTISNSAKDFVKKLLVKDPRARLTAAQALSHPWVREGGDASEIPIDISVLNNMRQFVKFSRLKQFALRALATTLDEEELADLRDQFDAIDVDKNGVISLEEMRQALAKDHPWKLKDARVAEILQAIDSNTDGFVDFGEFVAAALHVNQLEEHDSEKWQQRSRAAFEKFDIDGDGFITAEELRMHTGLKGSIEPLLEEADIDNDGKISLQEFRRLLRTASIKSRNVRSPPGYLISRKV", "test": "in vitro kinase assay, […] autoradiography", "assay_type": "biochemical", "settings": "50 μM ATP spiked with [γ-32P]ATP, labelled compound; 6His-SUMO-AtACS7 as phosphoacceptor; Ca2+ dependent (shown with peptides P5-2 and P11-2); room temperature, 15 min"}, "[2]": {"biological_target": "T2, AtCDPK16 (G-AtCDPK16-6His) (Arabidopsis thaliana, UniProt Q7XJR9, S274A/S541A)", "T2 construct": "gene CPK16; recombinant from E. coli, N-terminal G (GST) and C-terminal 6His tags, about 100 kDa with tags", "T2 sequence (Q7XJR9 1-571 S274A/S541A)": "T1 sequence (Q7XJR9 1-571) with S274A, S541A", "test": "in vitro kinase assay, […] autoradiography", "assay_type": "biochemical", "settings": "50 μM ATP spiked with [γ-32P]ATP, labelled compound; AtACS7 fusion protein and peptides as phosphoacceptors; room temperature, 15 min"}, "[3]": {"biological_target": "14-3-3ω (UniProt Q01525)", "test": "quartz crystal microbalance (QCM)", "settings": "reference: untreated 6His-SUMO-ACS7; sites S216,T296,S299"}, "[4]": {"biological_target": "T3, 6His-SUMO–AtACS7 recombinant protein (Arabidopsis thaliana, UniProt Q9STR4 1-447)", "T3 construct": "1-aminocyclopropane-1-carboxylate synthase 7 (AtACS7), Arabidopsis thaliana; called the full-length ACS7 recombinant protein; The printed name puts 6His and SUMO before ACS7; also called 6His-SUMO–ACS7; SUMO–ACS7; source: E. coli, purified (Ni-NTA)", "T3 sequence (looked up)": "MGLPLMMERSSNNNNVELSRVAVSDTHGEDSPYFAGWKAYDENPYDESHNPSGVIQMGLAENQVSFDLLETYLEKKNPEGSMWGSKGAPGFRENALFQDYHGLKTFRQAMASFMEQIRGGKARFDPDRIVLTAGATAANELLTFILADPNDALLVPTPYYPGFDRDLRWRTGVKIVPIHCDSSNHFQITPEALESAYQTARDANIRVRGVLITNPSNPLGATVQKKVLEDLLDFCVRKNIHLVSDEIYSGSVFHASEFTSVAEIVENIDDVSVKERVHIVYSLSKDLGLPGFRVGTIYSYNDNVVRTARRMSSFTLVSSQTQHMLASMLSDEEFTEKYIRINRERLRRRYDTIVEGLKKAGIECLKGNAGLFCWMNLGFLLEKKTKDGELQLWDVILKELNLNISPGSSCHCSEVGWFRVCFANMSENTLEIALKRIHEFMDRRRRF", "test": "quartz crystal microbalance (QCM); AFFINIX QN μ, PBS buffer; results: G-14-3-3ω coated on the sensor and 6His-SUMO–ACS7 injected (the methods tell the reverse order)", "settings": "both partners purified"}, "[5]": {"biological_target": "T4, phosphorylated 6His-SUMO–ACS7 (phosphorylated by CDPK16 in vitro in advance) (Arabidopsis thaliana, UniProt Q9STR4 1-447, phosphorylated by CDPK16 in vitro; the sites that the paper identifies with fusion peptides are Ser216, Thr296 and Ser299)", "T4 construct": "1-aminocyclopropane-1-carboxylate synthase 7 (AtACS7), Arabidopsis thaliana; the full-length ACS7 recombinant protein; source: E. coli, purified (Ni-NTA), then phosphorylated by CDPK16 in vitro", "T4 sequence (looked up)": "T3 sequence (looked up)", "test": "quartz crystal microbalance (QCM); AFFINIX QN μ, PBS buffer; results: G-14-3-3ω coated on the sensor and 6His-SUMO–ACS7 injected (the methods tell the reverse order)", "settings": "both partners purified"}},
  "note": "Positions count from the first letter of the chain named.",
  "data": [
    {"molecule": "Nc1ncnc2c1ncn2[C@@H]1O[C@H](COP(=O)(O)OP(=O)(O)OP(=O)(O)O)[C@@H](O)[C@H]1O", "note": "[ATP]", "values": [
      {"measurement": "in vitro kinase assay, 32P autoradiography", "setting": "[1]", "result": "CDPK16 can phosphorylate the recombinant protein 6His-SUMO–AtACS7 in vitro"},
      {"measurement": "in vitro kinase assay, 32P autoradiography", "setting": "[2]", "result": "autophosphorylation of the mutated recombinant protein (G-CDPK16-6His MT) was greatly reduced"}
    ]},
    {"molecule": "AtACS7 (ACS7, type III ACC synthase) (from UniProt Q9STR4) 6His-SUMO-ACS7 phosphorylated by CDPK16 in vitro", "values": [
      {"measurement": "KD", "setting": "[3]", "result": "same; reference 9.29±1.99×10–9"}
    ]},
    {"molecule": "B1", "values": [
      {"measurement": "Kd", "setting": "[4]", "result": 9.29, "unit": "nM"},
      {"measurement": "Kd", "setting": "[5]", "result": 5.05, "unit": "nM"}
    ]}
  ]
}
